The results in this text go back to patent publication US20160052997A1.

“And” between values parts separate entries of the source, which are not always exact repeats. Equal entries are not always repeated. Where two headings read alike, the source gives them in different places.

For orientation: Kd means a measure of binding affinity in units of concentration. Usually koff stands for the first-order rate constant of dissociation. Broadly, the kon is the rate constant with which the complex forms.

Test [1] has as its target HA of A/Wisconsin/67/05 (H3N2) virus (Influenza A virus A/Wisconsin/67/05 (H3N2)). Put plainly: cell-based or functional assay.
In test [2] the target is HA of A/Brisbane/10/07 (H3N2) virus (Influenza A virus A/Brisbane/10/07 (H3N2)). Briefly: cell-based or functional assay.
Test [3] has as its target HA of A/Hong Kong/68 (H3N2) virus (Influenza A virus A/Hong Kong/68 (H3N2)). Put plainly: cell-based or functional assay.
The target of test [4] is purified recombinant HA protein of H5N1 (A/Vietnam/1203/04) (Influenza A virus A/Vietnam/1203/04 (H5N1)). Briefly: SPR, Biacore T200, HA captured via anti-6x his tag antibody, 25 C.
Test [5] addresses purified recombinant HA protein of H1N1 (A/Ohio/07/09) (Influenza A virus A/Ohio/07/09 (H1N1)). The description is as above.
For test [6], the target named is purified recombinant HA protein of H1N1 (A/Texas/05/09) (Influenza A virus A/Texas/05/09 (H1N1)). The test is described as above.
The target of test [7] is purified recombinant HA protein of H5N1 (A/Vietnam/1203/04) (Influenza A virus A/Vietnam/1203/04 (H5N1)).
In test [8] the target is purified recombinant HA protein of H1N1 (A/Ohio/07/09) (Influenza A virus A/Ohio/07/09 (H1N1)).
The target in test [9] is purified recombinant HA protein of H1N1 (A/Texas/05/09) (Influenza A virus A/Texas/05/09 (H1N1)).

B1: CT164 (antibody, V domains shown)
VH: QVQLVQSGVEVKKPGASVKVSCKTSGYPFSTYGVSWVRQAPGQGLEWVGWISGYTGITDYAQKSQGRVTLTTDASTATAFLELRSLRPDDTATYFCARDKVQGRVEAGSGGRHDYWGQGTLVIVSS
VL: EVVLTQSPGTLTLPPGDRATLSCRASHSVGSTYIAWFQQKSGQAPRRLIYGASNRATDIPDRFSGSGSGTDFTLTIRRLEPEDSAVYYCQQFSVSPWTFGQGTRVEIKR
Consider B1, for which the MN test: lowest antibody concentration at which no virus antigen was detected amounted to 2.5 µg/mL in [1], 0.625 µg/mL in [2] and 1.25 µg/mL in [3].

B2: CT166 (antibody, V domains shown)
VH: QVQLVQSGAEVKKPGASVKVSCKTSGYSFSTYGVSWVRQAPGQGLEWVGWISGYTGITDYAQKFQGRVTLTTDATTATAFLELRSLRPDDTATYFCARDKVQGRVEVGSGGRHDYWGQGTLVIVSS
VL: EVVLTQSPGTLALPPGERATLSCRASHSIGSTYIAWYQQKSGQAPRRLIYGASNRASDIPDRFSGSGSGTDFTLTIRRLEPEDSAVYYCQQFSVSPWTFGQGTRVEIKR
As to B2, the MN test: lowest antibody concentration at which no virus antigen was detected in [1] is 5 µg/mL; in [2], 1.25 µg/mL; in test [3], 2.5 µg/mL.

B3: CT120 (antibody, V domains shown)
VH: QVQLVQSGAEVKMPGSSVKVSCKTSGVFFSSHAISWVRQAPGQGLEWMGGISPMFGTTHYAQKFQGRVTITADQSTTTAYMELTSLTSEDTAVYYCARDGAGSYYPLNWFDPWGQGTLVTVSS
VL: EIVLTQSPATLSLSPGERATLSCRASENIWNNLAWYQQKPGQAPRLLISGASTGATGVPSRFRGSGSRTEFTLTISSLQSEDFAIYFCQQYNSWPRTFGPGTKVEIKR
For B3, the Kd was 3.74 nM and 4.2 nM in test [4]; 1.76 nM and 2.24 nM in test [5]; 1.97 nM and 1.55 nM in test [6]; 3.97 nM in test [7]; 2 nM in test [8]; 1.76 nM in [9]. For the same molecule, the koff in test [4] was 3.88 s⁻¹; in [5] it was 0.000663 s⁻¹ and 0.000789 s⁻¹; in test [6], 0.00119 s⁻¹ and 0.00098 s⁻¹. In addition, the on-rate (kon) in test [5] is 376000 M⁻¹ s⁻¹ and 352000 M⁻¹ s⁻¹; in test [6] it was 606000 M⁻¹ s⁻¹ and 632000 M⁻¹ s⁻¹.
